The series concerns the target T1, LPE1 (mature, without transit peptide) (Arabidopsis thaliana, UniProt Q9SNB7 69-665).
T1 sequence: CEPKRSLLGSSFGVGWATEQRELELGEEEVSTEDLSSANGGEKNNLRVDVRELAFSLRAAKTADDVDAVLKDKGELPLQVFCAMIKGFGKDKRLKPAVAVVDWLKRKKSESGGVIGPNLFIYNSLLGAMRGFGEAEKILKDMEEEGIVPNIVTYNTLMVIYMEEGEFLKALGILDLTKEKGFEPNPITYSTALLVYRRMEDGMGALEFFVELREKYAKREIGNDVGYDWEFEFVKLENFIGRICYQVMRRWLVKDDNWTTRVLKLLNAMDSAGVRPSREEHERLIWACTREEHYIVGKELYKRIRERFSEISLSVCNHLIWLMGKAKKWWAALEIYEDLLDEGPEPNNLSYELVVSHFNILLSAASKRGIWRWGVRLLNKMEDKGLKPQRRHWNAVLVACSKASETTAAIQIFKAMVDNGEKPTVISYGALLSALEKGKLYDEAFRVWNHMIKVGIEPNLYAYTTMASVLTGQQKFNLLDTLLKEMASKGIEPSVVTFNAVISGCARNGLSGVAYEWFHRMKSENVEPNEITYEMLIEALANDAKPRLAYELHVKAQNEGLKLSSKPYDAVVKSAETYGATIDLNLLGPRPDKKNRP
Description: EMSA.

B1: psbA 5' UTR probe (full length, first 82 nt) (ssRNA)
RNA: UUCAUAACAAGCUCUCAAUUAUCUACUUAGAGAAUUUGUGCGCUUGGAGUCCCUGAUUAUUAAAUAAACCAAGGAUUUUACC
Regarding B1, the binding result is given as “binds”.

Source of the values: paper PMC6042084.
